This is an account of results in patent US20210122788A1 (SANFORD BURNHAM PREBYS MEDICAL DISCOVERY INSTITUTE, published 2021).

This experiment concerns the target T1, human HVEM Fc (human, UniProt Q92956 39-202).
T1 construct: also called wild-type HVEM-Fc; not shown: human IgG1 Fc
T1 sequence: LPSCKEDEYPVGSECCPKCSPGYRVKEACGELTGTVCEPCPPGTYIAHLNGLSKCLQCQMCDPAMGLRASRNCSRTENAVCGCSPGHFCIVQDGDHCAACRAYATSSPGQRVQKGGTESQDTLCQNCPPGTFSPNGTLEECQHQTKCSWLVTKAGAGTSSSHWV
Description: flow cytometry on EL4 cells expressing human CD160. On the technique in general: A flow cytometer gives signals particle by particle.

B1: human CD160 on cells (receptor)
chain: GCINITSSASQEGTRLNLICTVWHKKEEAEGFVVFLCKDRSGDCSPETSLKQLRLKRDPGIDGVGEISSQLMFTISQVTPLHSGTYQCCARSQKSGIRLQGHFFSILFTETGNYTVTGLKQRQHLEFSHNEGTLS
notes: whole, on cells; Transduced into EL4 or 293T cells; endogenous on NK92 and blood NK cells in the functional rows
With B1, the binding result is “binds”.
